Publication PMC6317593, “Determining the amphipol distribution within membrane-protein fibre samples using small-angle neutron scattering” (Acta Crystallographica. Section D, Structural Biology, 2018)

Target: the molecule itself
Assay: SEC; Superose 12 column, 20 mM sodium phosphate pH 7.9, 100 mM NaCl, 0.5 ml/min; OmpF in amphipol A8-35 at 1:10 (w:w), detergent-free buffer; oligomer: trimer

B1: Outer membrane protein F (OmpF) (natural protein, E. coli, UniProt P02931 23-362, looked up)
chain: AEIYNKDGNKVDLYGKAVGLHYFSKGNGENSYGGNGDMTYARLGFKGETQINSDLTGYGQWEYNFQGNNSEGADAQTGNKTRLAFAGLKYADVGSFDYGRNYGVVYDALGYTDMLPEFGGDTAYSDDFFVGRVGGVATYRNSNFFGLVDGLNFAVQYLGKNERDTARRSNGDGVGGSISYEYEGFGIVGAYGAADRTNLQEAQPLGNGKKAEQWATGLKYDANNIYLAANYGETRNATPITNKFTNTSGFANKTQDVLLVAQYQFDFGLRPSIAYTKSKAKDVEGIGDVDLVNYFEVGATYYFNKNMSTYVDYIINQIDSDNKLGVGSDDTVAVGIVYQF
modifications: deuterated (cells grown in 85% D2O minimal medium)
notes: Outer membrane protein F (OmpF), the major porin of the E. coli outer membrane, produced from E. coli BE3000 cells; trimeric, each monomer a 16-stranded beta-barrel; Native protein purified from the outer membrane of strain BE3000; Held in amphipol A8-35 (not a protein) in all experiments; also called dOmpF; deuterated OmpF; source: E. coli BE3000 cells grown in 85% D2O minimal medium, purified …
stoichiometry N: 3
